Results from paper PMC8041999.

B1: FLAG-tagged KIR2DL3, full-length, wild type, on 293T cells [human] / HLA-C*07:02-RL9 tetramer (phycoerythrin-conjugated) [modified: biotin (enzymatically, with biotin ligase)] [human | not stated] (parent)
chain 1: HEGVHRKPSLLAHPGPLVKSEETVILQCWSDVRFQHFLLHREGKFKDTLHLIGEHHDGVSKANFSIGPMMQDLAGTYRCYGSVTHSPYQLSAPSDPLDIVITGLYEKPSLSAQPGPTVLAGESVTLSCSSRSSYDMYHLSREGEAHERRFSAGPKVNGTFQADFPLGPATHGGTYRCFGSFRDSPYEWSNSSDPLLVSVTGNPSNSWPSPTEPSSETGNPRHLHVLIGTSVVIILFILLLFFLLHRWCCNKKNAVVMDQEPAGNRTVNREDSDEQDPQEVTYAQLNHCVFTQRKITRPSQRPKTPPTDIIVYTELPNAEP
chain 2: not shown
chain 3: not shown
chain 4: RYRPGTVAL
B2: FLAG-tagged KIR2DL2, full-length, wild type, on 293T cells [human] / HLA-C*03:04-GL9 tetramer (phycoerythrin-conjugated) [modified: biotin (enzymatically, with biotin ligase)] [human] (parent)
chain 1: HEGVHRKPSLLAHPGRLVKSEETVILQCWSDVRFEHFLLHREGKFKDTLHLIGEHHDGVSKANFSIGPMMQDLAGTYRCYGSVTHSPYQLSAPSDPLDIVITGLYEKPSLSAQPGPTVLAGESVTLSCSSRSSYDMYHLSREGEAHECRFSAGPKVNGTFQADFPLGPATHGGTYRCFGSFRDSPYEWSNSSDPLLVSVIGNPSNSWPSPTEPSSKTGNPRHLHILIGTSVVIILFILLFFLLHRWCSNKKNAAVMDQESAGNRTANSEDSDEQDPQEVTYTQLNHCVFTQRKITRPSQRPKTPPTDIIVYAELPNAESRSKVVSCP
chain 2: not shown
chain 3: not shown
chain 4: GAVDPLLAL
B3: FLAG-tagged KIR2DL3, full-length, wild type, on 293T cells [human] / HLA-C*03:04-GL9 tetramer (phycoerythrin-conjugated) [modified: biotin (enzymatically, with biotin ligase)] [human] (parent)
chain 1: B1 chain 1
chain 2: not shown
chain 3: not shown
chain 4: GAVDPLLAL
B4: FLAG-tagged KIR2DL2, full-length, wild type, on 293T cells [human] / HLA-C*07:02-RL9 tetramer (phycoerythrin-conjugated) [modified: biotin (enzymatically, with biotin ligase)] [human | not stated] (parent)
chain 1: B2 chain 1
chain 2: not shown
chain 3: not shown
chain 4: RYRPGTVAL

Variants of: B1
Test: flow cytometry, HLA tetramer staining of transfected 293T cells
Settings: with HLA-C*07:02-RL9 tetramer (phycoerythrin-conjugated) [modified: biotin (enzymatically, with biotin ligase)] [human | not stated]; percentage tetramer+ normalised to percentage FLAG+; read off a plot

ratio to parent	Variant
0.06	chain 1 F181A

Variants of: B2
Test: as above
Settings: with HLA-C*03:04-GL9 tetramer (phycoerythrin-conjugated) [modified: biotin (enzymatically, with biotin ligase)] [human]; percentage tetramer+ normalised to percentage FLAG+; read off a plot

ratio to parent	Variant
0.05	chain 1 F181A

Variants of: B3
Test: as above
Settings: with HLA-C*03:04-GL9 tetramer (phycoerythrin-conjugated) [modified: biotin (enzymatically, with biotin ligase)] [human]; percentage tetramer+ normalised to percentage FLAG+; read off a plot

ratio to parent	Variant
0.07	chain 1 F181A

Variants of: B4
Test: as above
Settings: with HLA-C*07:02-RL9 tetramer (phycoerythrin-conjugated) [modified: biotin (enzymatically, with biotin ligase)] [human | not stated]; percentage tetramer+ normalised to percentage FLAG+; read off a plot

ratio to parent	Variant
0.02	chain 1 F181A
